Data on four molecules can be found in doi:10.1101/2021.06.22.449413, “A Thioredoxin reductive mechanism balances the oxidative protein import pathway in the intermembrane space of mitochondria” (bioRxiv, 2021).

Where a chain is given by its changes, count along the chain named.

B1: Thioredoxin 2 (Trx2), His-tagged (natural protein, S. cerevisiae, UniProt P22803 1-104, looked up)
chain: MVTQLKSASEYDSALASGDKLVVVDFFATWCGPCKMIAPMIEKFAEQYSDAAFYKLDVDEVSDVAQKAEVSSMPTLIFYKGGKEVTRVVGANPAAIKQAIASNV
notes: Thioredoxin 2 (Trx2), S. cerevisiae, cytosolic isoform; source: purified as 6His-tagged protein
B2: Trx1 C30/33S double mutant, His-tagged (natural protein, S. cerevisiae, UniProt P22217 1-103, looked up)
chain: MVTQFKTASEFDSAIAQDKLVVVDFYATWSGPSKMIAPMIEKFSEQYPQADFYKLDVDELGDVAQKNEVSAMPTLLLFKNGKEVAKVVGANPAAIKQAIAANA
notes: Thioredoxin 1 (Trx1), S. cerevisiae, both active-site cysteines changed to serine; also called Trx1His C30/33S; TrxC30/33SHis; source: purified as 6His-tagged protein
B3: Thioredoxin 1 (Trx1), His-tagged, wild type (natural protein, S. cerevisiae, UniProt P22217 1-103, looked up)
chain: B2 chain with S30C, S33C
notes: Thioredoxin 1 (Trx1), S. cerevisiae, cytosolic isoform; cloned in PET24 vector; also called Trx1His wt; TrxHis; source: E. coli, purified (Ni-NTA); for the pull-down imported into isolated wt yeast mitochondria
B4: Mia40Δ290 His (S. cerevisiae Mia40 devoid of the N-terminal 290 residues) (domain or fragment, UniProt P36046 291-403, looked up)
chain: EINWDCPCLGGMAHGPCGEEFKSAFSCFVYSEAEPKGIDCVEKFQHMQDCFRKYPEHYAEQLKETSDDEEPQDKVKVNTIESAPNVSSAKENAAKKAEQSDVKKEPLNEESKP
notes: Mia40, S. cerevisiae, lacking the first 290 amino acids; core domain of about 15 kDa; also called core domain of Mia40; soluble functional domain of Mia40; source: purified as 6His-tagged protein

Data set [1] has as its target B4. Kind of data set: cross-linking; glutaraldehyde 0.1 % final, equimolar purified proteins alone or together, 50 mM Hepes-KOH pH 7.4, on ice, 20 seconds to 10 minutes; SDS-PAGE and anti-His immunoblot. The following applies: both partners purified. (In general: Immunoblotting shows a protein as a band on a membrane.)
Data set [2] deals with the molecule itself. Described as above.
The target of data set [3] is B4. As to the kind of experiment: ITC; 1 mM Mia40Δ290 His in the syringe, 0.1 mM TrxC30/33SHis in the cell; Kd calculated with the Origin software. The following applies: both partners purified.

Take B1: the binding result in data set [1] and in data set [2] was “binds” each time. By Kd is commonly meant the equilibrium constant for the complex coming apart. As for B2, the dissociation constant Kd in data set [3] is 30 µM. The binding result in data set [2] is “binds”. As for B3, the binding result in data set [1] and in data set [2] was “binds” each time. For B4, in data set [2], the binding result is “binds”.
